Data: patent US20220363757A1 (SYMPHOGEN A S, published 2022)
Changes are numbered by the printed parent chain. Blank lines part the entries; values can stand above or below the binder they belong to.

Tests used:
Assay in all cases: SPR, Fab over captured mutant LAG-3-Fc;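 note: fc fusion variants captured on anti-human IgG Fc sensor, Fab injected with association then dissociation phases, KD obtained from Langmuir one-to-one fit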
[1] = target: T1, human LAG-3 domain 1-2 Fc fusion, point mutation #17 Q66A (human, UniProt P18627 23-266)
T1 construct: not shown: human IgG1 Fc, AA P101-K330
T1 sequence: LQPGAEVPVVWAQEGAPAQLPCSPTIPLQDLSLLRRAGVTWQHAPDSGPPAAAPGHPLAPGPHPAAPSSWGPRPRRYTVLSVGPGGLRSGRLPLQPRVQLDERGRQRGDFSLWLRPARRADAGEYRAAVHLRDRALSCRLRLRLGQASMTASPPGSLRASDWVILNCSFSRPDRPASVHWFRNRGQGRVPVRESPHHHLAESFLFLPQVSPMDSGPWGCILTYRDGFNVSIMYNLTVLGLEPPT

[2] = target: T2, human LAG-3 domain 1-2 Fc fusion, point mutation #28 A81S (human, UniProt P18627 23-266)
T2 construct: not shown: human IgG1 Fc, AA P101-K330
T2 sequence: T1 sequence with A44Q, A59S

[3] = target: T3, human LAG-3 domain 1-2 Fc fusion, point mutation #18 P67A (human, UniProt P18627 23-266)
T3 construct: not shown: human IgG1 Fc, AA P101-K330
T3 sequence: T1 sequence with A44Q, P45A

[4] = target: T4, human LAG-3 domain 1-2 Fc fusion, point mutation #73 R137A (human, UniProt P18627 23-266)
T4 construct: not shown: human IgG1 Fc, AA P101-K330
T4 sequence: T1 sequence with A44Q, R115A

[5] = target: T5, human LAG-3 domain 1-2 Fc fusion, point mutation #54 R110A (human, UniProt P18627 23-266)
T5 construct: not shown: human IgG1 Fc, AA P101-K330
T5 sequence: T1 sequence with A44Q, R88A

[6] = target: T6, human LAG-3 domain 1-2 Fc fusion, point mutation #76 D143A (human, UniProt P18627 23-266)
T6 construct: not shown: human IgG1 Fc, AA P101-K330
T6 sequence: T1 sequence with A44Q, D121A

[7] = target: T7, human LAG-3 domain 1-2 Fc fusion, point mutation #16 H65A (human, UniProt P18627 23-266)
T7 construct: not shown: human IgG1 Fc, AA P101-K330
T7 sequence: T1 sequence with H43A, A44Q

[8] = target: T8, human LAG-3 domain 1-2 Fc fusion, point mutation #62 Q121A (human, UniProt P18627 23-266)
T8 construct: not shown: human IgG1 Fc, AA P101-K330
T8 sequence: T1 sequence with A44Q, Q99A

[9] = target: T9, human LAG-3 domain 1-2 Fc fusion, point mutation #48 V101A (human, UniProt P18627 23-266)
T9 construct: not shown: human IgG1 Fc, AA P101-K330
T9 sequence: T1 sequence with A44Q, V79A

KD mutant/KD wild type [1]: 2.7 fold | KD mutant/KD wild type [2]: 0.6 fold | KD mutant/KD wild type [3]: 3.8 fold | KD mutant/KD wild type [4]: 3.6 fold | KD mutant/KD wild type [5]: 0.9 fold | KD mutant/KD wild type [6]: 3.8 fold | KD mutant/KD wild type [7]: 3.8 fold | KD mutant/KD wild type [8]: 0.9 fold | KD mutant/KD wild type [9]: 3.5 fold
B1: Fab fragment of antibody 15532 (Fab, V domains shown, not shown: a dimerising Fc or GST)
VH: QVQLQQWGAGLLRPSETLSLTCAVYGESFSGYYWNWIRQPPGKGLEWIGEINHSGSTNYNPSLKSRVTISVDTSKTQFSLKLSSVTAADTAVYYCARGWDLLDWNDYWNEYWGQGTLVTVSS
VL: EIVLTQSPATLSLSPGERATLSCRASQSVSSYLAWYQQKPGQAPRLLIYDASNRATGIPARFSGSGSGTDFTLTISSLEPEDFAVYYCQQRSNWPLTFGGGTKVEIKR
notes: monomeric Fab made by GingisKHAN digestion of the IgG1

binding result [1]: no binding (tested: 300 nM) | KD mutant/KD wild type [2]: 0.6 fold | binding result [3]: no binding (tested: 300 nM) | binding result [4]: no binding (tested: 300 nM) | KD mutant/KD wild type [5]: 0.9 fold | binding result [6]: no binding (tested: 300 nM) | binding result [7]: no binding (tested: 300 nM) | KD mutant/KD wild type [8]: 1 fold | binding result [9]: no binding (tested: 300 nM)
B2: Fab fragment of antibody 15431 (Fab, V domains shown, not shown: a dimerising Fc or GST)
VH: QVQLQQSGPGLVKPSQTLSLTCAISGDSVSSNSAAWNWIRQSPSRGLEWLGRTYYRSKWYNDYAVSVKSRITINPDTSKNQFSLQLNSVTPEDTAVYYCARDDDWNDFDYWGQGTLVTVSS
VL: B1 VL
notes: as for B1

binding result [1]: no binding (tested: 300 nM) | KD mutant/KD wild type [2]: 0.6 fold | binding result [3]: no binding (tested: 300 nM) | binding result [4]: no binding (tested: 300 nM) | KD mutant/KD wild type [5]: 0.6 fold | binding result [6]: no binding (tested: 300 nM) | binding result [7]: no binding (tested: 300 nM) | KD mutant/KD wild type [8]: 0.6 fold | binding result [9]: no binding (tested: 300 nM)
B3: Fab fragment of antibody 15572 (Fab, V domains shown, not shown: a dimerising Fc or GST)
VH: QLQLQESGPGLVKPSETLSLTCTVSGDSISSSSYYWGWIRQPPGKGLEWIGSIFYSGNTYYNPSLKSRVTISVDTSKNQFSLKLSSVTAADTAVYYCAREDDFLTDYYGAFDIWGQGTMVTVSS
VL: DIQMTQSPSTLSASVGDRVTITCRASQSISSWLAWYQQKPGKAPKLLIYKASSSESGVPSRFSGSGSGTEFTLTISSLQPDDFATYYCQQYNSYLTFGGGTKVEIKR
notes: as for B1

KD mutant/KD wild type [1]: 0.7 fold | KD mutant/KD wild type [2]: 0.8 fold | KD mutant/KD wild type [3]: 0.6 fold | KD mutant/KD wild type [4]: 0.6 fold | binding result [5]: no binding (tested: 300 nM) | KD mutant/KD wild type [6]: 0.5 fold | KD mutant/KD wild type [7]: 0.5 fold | KD mutant/KD wild type [8]: 0.9 fold | KD mutant/KD wild type [9]: 0.5 fold
B4: Fab fragment of antibody 15011 (Fab, V domains shown, not shown: a dimerising Fc or GST)
VH: EVQLLESGGGLVQPGGSLRLSCAASGFDFRSYAMMWVRQAPGKGLEWVGGINGEVGGSNTYYAPAVKGRATISRDNSKNTLYLQMNSLRAEDTAVYYCVKGAGACGICNDDIDAWGQGTLVTVSS
VL: SYELTQDPAVSVALGQTVRITCSGAGSYAGSYYYGWHQQKPGQAPVTVIYDNDKRPSNIPDRFSGSSSGNTASLTITGAQAEDEADYYCGSTNDNDDGGLFGSGTKVTVLG
notes: as for B1
